Molecular target: GST-tagged active human MEK1, Q02750

B1: GST-tagged inactive human ERK1 (protein)
chain: MAAAAAQGGGGGEPRRTEGVGPGVPGEVEMVKGQPFDVGPRYTQLQYIGEGAYGMVSSAYDHVRKTRVAIKKISPFEHQTYCQRTLREIQILLRFRHENVIGIRDILRASTLEAMRDVYIVQDLMETDLYKLLKSQQLSNDHICYFLYQILRGLKYIHSANVLHRDLKPSNLLINTTCDLKICDFGLARIADPEHDHTGFLTEYVATRWYRAPEIMLNSKGYTKSIDIWSVGCILAEMLSNRPIFPGKHYLDQLNHILGILGSPSQEDLNCIINMKARNYLQSLPSKTKVAWAKLFPKSDSKALDLLDRMLTFNPNKRITVEEALAHPYLEQYYDPTDEPVAEEPFTFAMELDDLPKERLKELIFQETARFQPGVLEAP
  in vitro HSF1 Ser326 phosphorylation by GST-MEK1 in the presence of inactive GST-ERK1, detected by immunoblotting: recombinant ERK1 proteins impeded in vitro HSF1 Ser326 phosphorylation by recombinant MEK1 proteins
